Source: patent US20150203577A1 (Chugai, published 2015)

T1: mouse FcγRIII (mouse, UniProt P08508 31-215)
T1 construct: Extracellular domain with C-terminal His tag; also called mFcγRIII; mFcgRIII
T1 chain: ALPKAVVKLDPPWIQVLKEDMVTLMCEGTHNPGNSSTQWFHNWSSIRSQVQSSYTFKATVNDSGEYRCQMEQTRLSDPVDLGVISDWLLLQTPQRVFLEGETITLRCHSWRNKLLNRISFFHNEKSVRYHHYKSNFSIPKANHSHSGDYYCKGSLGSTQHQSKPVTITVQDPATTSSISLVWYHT

T2: mouse FcγRII (mouse, UniProt P08101 30-210)
T2 construct: Extracellular domain with C-terminal His tag; also called mFcγRII; mFcgRII
T2 sequence: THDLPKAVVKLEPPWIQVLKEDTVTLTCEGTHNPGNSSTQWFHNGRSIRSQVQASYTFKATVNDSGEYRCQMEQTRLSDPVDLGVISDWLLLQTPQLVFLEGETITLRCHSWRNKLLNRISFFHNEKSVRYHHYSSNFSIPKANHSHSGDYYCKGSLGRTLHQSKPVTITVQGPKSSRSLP

B1: MB828 (antibody, mouse IgG1, kappa)
heavy: QVQLQESGPGLVKPSETLSLTCAVSGHSISHDHAWSWVRQPPGEGLEWIGFISYSGITNYNPSLQGRVTISRDNSKNTLYLQMNSLRAEDTAVYYCARSLARTTAMDYWGEGTLVTVSSAKTTPPSVYPLAPGSAAQTNSMVTLGCLVKGYFPEPVTVTWNSGSLSSGVHTFPAVLQSDLYTLSSSVTVPSSTWPSETVTCNVAHPASSTKVDKKIVPRDCGCKPCICEPNEVELVFIFPPKPKDVLTITLTPKVTCVVVDISKDDPEVQFSWFVDDVEVHTAQTQPREEQFNSTFRSVSELPIMHQDWLNGKEFKCRVNSAGFPAPIYKTISKTKGRPKAPQVYTIPPPKEQMAKDKVSLTCMITDFFPEDITVEWQWNGQPAENYKNTQPIMDTDGSYFVYSKLNVQKSNWEAGNTFTCSVLHEGLHNHHTEKSLSHSPGK
light: not shown
notes: CH name; VH H237 + CH, L chain MRAL-k0; copies: 2 + 2
B2: MB829 (antibody, mouse IgG1, kappa)
heavy: QVQLQESGPGLVKPSETLSLTCAVSGHSISHDHAWSWVRQPPGEGLEWIGFISYSGITNYNPSLQGRVTISRDNSKNTLYLQMNSLRAEDTAVYYCARSLARTTAMDYWGEGTLVTVSSAKTTPPSVYPLAPGSAAQTNSMVTLGCLVKGYFPEPVTVTWNSGSLSSGVHTFPAVLQSDLYTLSSSVTVPSSTWPSETVTCNVAHPASSTKVDKKIVPRDCGCKPCICEPNEVELVFIFPPKPKDVLTITLTPKVTCVVVDISKDDPEVQFSWFVDDVEVHTAQTQPREEQFNSTFRSVSELPIMHQDWLNGKEFKCRVNSAGFPAPIERTISKTKGRPKAPQVYTIPPPKEQMAKDKVSLTCMITDFFPEDITVEWQWNGQPAENYKNTQPIMDTDGSYFVYSKLNVQKSNWEAGNTFTCSVLHEGLHNHHTEKSLSHSPGK
light: not shown
notes: as for B1
B3: MB830 (antibody, mouse IgG1, kappa)
heavy: QVQLQESGPGLVKPSETLSLTCAVSGHSISHDHAWSWVRQPPGEGLEWIGFISYSGITNYNPSLQGRVTISRDNSKNTLYLQMNSLRAEDTAVYYCARSLARTTAMDYWGEGTLVTVSSAKTTPPSVYPLAPGSAAQTNSMVTLGCLVKGYFPEPVTVTWNSGSLSSGVHTFPAVLQSDLYTLSSSVTVPSSTWPSETVTCNVAHPASSTKVDKKIVPRDCGCKPCICEPNEVELVFIFPPKPKDVLTITLTPKVTCVVVDISKDDPEVQFSWFVDDVEVHTAQTQPREEQFNSTFRSVSELPIMHQDWLNGKEFKCRVNSAAFPAFIYKTISKTKGRPKAPQVYTIPPPKEQMAKDKVSLTCMITDFFPEDITVEWQWNGQPAENYKNTQPIMDTDGSYFVYSKLNVQKSNWEAGNTFTCSVLHEGLHNHHTEKSLSHSPGK
light: not shown
notes: as for B1
B4: MB831 (antibody, mouse IgG1, kappa)
heavy: QVQLQESGPGLVKPSETLSLTCAVSGHSISHDHAWSWVRQPPGEGLEWIGFISYSGITNYNPSLQGRVTISRDNSKNTLYLQMNSLRAEDTAVYYCARSLARTTAMDYWGEGTLVTVSSAKTTPPSVYPLAPGSAAQTNSMVTLGCLVKGYFPEPVTVTWNSGSLSSGVHTFPAVLQSDLYTLSSSVTVPSSTWPSETVTCNVAHPASSTKVDKKIVPRDCGCKPCICEPNEVELVFIFPPKPKDVLTITLTPKVTCVVVDISKDDPEVQFSWFVDDVEVHTAQTQPREEQFNSTFRSVSELPIMHQDWLNGKEFKCRVNSAAFPAFIERTISKTKGRPKAPQVYTIPPPKEQMAKDKVSLTCMITDFFPEDITVEWQWNGQPAENYKNTQPIMDTDGSYFVYSKLNVQKSNWEAGNTFTCSVLHEGLHNHHTEKSLSHSPGK
light: not shown
notes: as for B1
B5: MB832 (antibody, mouse IgG1, kappa)
heavy: QVQLQESGPGLVKPSETLSLTCAVSGHSISHDHAWSWVRQPPGEGLEWIGFISYSGITNYNPSLQGRVTISRDNSKNTLYLQMNSLRAEDTAVYYCARSLARTTAMDYWGEGTLVTVSSAKTTPPSVYPLAPGSAAQTNSMVTLGCLVKGYFPEPVTVTWNSGSLSSGVHTFPAVLQSDLYTLSSSVTVPSSTWPSETVTCNVAHPASSTKVDKKIVPRDCGCKPCICEPNEVELVFIFPPKPKDVLTITLTPKVTCVVVDISKDDPEVQFSWFVDDVEVHTAQTQPREEQFNSTFRSVSELPIMHQDWLNGKEFKCRVNSAAFPAYIYKTISKTKGRPKAPQVYTIPPPKEQMAKDKVSLTCMITDFFPEDITVEWQWNGQPAENYKNTQPIMDTDGSYFVYSKLNVQKSNWEAGNTFTCSVLHEGLHNHHTEKSLSHSPGK
light: not shown
notes: as for B1
B6: MB833 (antibody, mouse IgG1, kappa)
heavy: QVQLQESGPGLVKPSETLSLTCAVSGHSISHDHAWSWVRQPPGEGLEWIGFISYSGITNYNPSLQGRVTISRDNSKNTLYLQMNSLRAEDTAVYYCARSLARTTAMDYWGEGTLVTVSSAKTTPPSVYPLAPGSAAQTNSMVTLGCLVKGYFPEPVTVTWNSGSLSSGVHTFPAVLQSDLYTLSSSVTVPSSTWPSETVTCNVAHPASSTKVDKKIVPRDCGCKPCICEPNEVELVFIFPPKPKDVLTITLTPKVTCVVVDISKDDPEVQFSWFVDDVEVHTAQTQPREEQFNSTFRSVSELPIMHQDWLNGKEFKCRVNSAAFPAYIERTISKTKGRPKAPQVYTIPPPKEQMAKDKVSLTCMITDFFPEDITVEWQWNGQPAENYKNTQPIMDTDGSYFVYSKLNVQKSNWEAGNTFTCSVLHEGLHNHHTEKSLSHSPGK
light: not shown
notes: as for B1
B7: MB834 (antibody, mouse IgG1, kappa)
heavy: QVQLQESGPGLVKPSETLSLTCAVSGHSISHDHAWSWVRQPPGEGLEWIGFISYSGITNYNPSLQGRVTISRDNSKNTLYLQMNSLRAEDTAVYYCARSLARTTAMDYWGEGTLVTVSSAKTTPPSVYPLAPGSAAQTNSMVTLGCLVKGYFPEPVTVTWNSGSLSSGVHTFPAVLQSDLYTLSSSVTVPSSTWPSETVTCNVAHPASSTKVDKKIVPRDCGCKPCICEPNEVELVFIFPPKPKDVLTITLTPKVTCVVVDISKDDPEVQFSWFVDDVEVHTAQTQPREEQFNSTFRSVSELPIMHQDWLNGKEFKCRVNSAAFPAPIYRTISKTKGRPKAPQVYTIPPPKEQMAKDKVSLTCMITDFFPEDITVEWQWNGQPAENYKNTQPIMDTDGSYFVYSKLNVQKSNWEAGNTFTCSVLHEGLHNHHTEKSLSHSPGK
light: not shown
notes: as for B1
B8: MB835 (antibody, mouse IgG1, kappa)
heavy: QVQLQESGPGLVKPSETLSLTCAVSGHSISHDHAWSWVRQPPGEGLEWIGFISYSGITNYNPSLQGRVTISRDNSKNTLYLQMNSLRAEDTAVYYCARSLARTTAMDYWGEGTLVTVSSAKTTPPSVYPLAPGSAAQTNSMVTLGCLVKGYFPEPVTVTWNSGSLSSGVHTFPAVLQSDLYTLSSSVTVPSSTWPSETVTCNVAHPASSTKVDKKIVPRDCGCKPCICEPNEVELVFIFPPKPKDVLTITLTPKVTCVVVDISDDDPEVQFSWFVDDVEVHTAQTQPREEQFNSTFRSVSELPIMHQDWLNGKEFKCRVNSAAFPAPIEKTISKTKGRPKAPQVYTIPPPKEQMAKDKVSLTCMITDFFPEDITVEWQWNGQPAENYKNTQPIMDTDGSYFVYSKLNVQKSNWEAGNTFTCSVLHEGLHNHHTEKSLSHSPGK
light: not shown
notes: as for B1
B9: MB846 (antibody, mouse IgG1, kappa)
heavy: QVQLQESGPGLVKPSETLSLTCAVSGHSISHDHAWSWVRQPPGEGLEWIGFISYSGITNYNPSLQGRVTISRDNSKNTLYLQMNSLRAEDTAVYYCARSLARTTAMDYWGEGTLVTVSSAKTTPPSVYPLAPGSAAQTNSMVTLGCLVKGYFPEPVTVTWNSGSLSSGVHTFPAVLQSDLYTLSSSVTVPSSTWPSETVTCNVAHPASSTKVDKKIVPRDCGCKPCICEPNEVELVFIFPPKPKDVLTITLTPKVTCVVVDISDDDPEVQFSWFVDDVEVHTAQTQPREEQFNSTFRSVSELPIMHQDWLNGKEFKCRVNSDGFPAPIEKTISKTKGRPKAPQVYTIPPPKEQMAKDKVSLTCMITDFFPEDITVEWQWNGQPAENYKNTQPIMDTDGSYFVYSKLNVQKSNWEAGNTFTCSVLHEGLHNHHTEKSLSHSPGK
light: not shown
notes: as for B1

What was measured:
mouse FcγRIII [1] = target: T1, mouse FcγRIII; assay: SPR (Biacore T200); KD of H237-MB630/MRAL-k0 / KD of variant
mouse FcγRII [2] = target: T2, mouse FcγRII; assay: as above
mouse FcγRIII [3] = target: T1, mouse FcγRIII; assay: SPR (Biacore T200); KD of H237-mIgG1/MRAL-k0 / KD of variant
mouse FcγRII [4] = target: T2, mouse FcγRII; assay: as above

| Binder | Relative mFcγRIII-binding activity (MB630 = 1) (mouse FcγRIII [1]) | Relative mFcγRII-binding activity (MB630 = 1) (mouse FcγRII [2]) | relative mFcγRIII-binding activity (mIgG1 = 1) (mouse FcγRIII [3]) | relative mFcγRII-binding activity (mIgG1 = 1) (mouse FcγRII [4]) |
| --- | --- | --- | --- | --- |
| B1 | 2.14 fold | 2.16 fold | 0.49 fold | 28.4 fold |
| B2 | 2.75 fold | 2.57 fold | 0.63 fold | 33.8 fold |
| B3 | 0.36 fold | 0.37 fold | 0.08 fold | 4.8 fold |
| B4 | 1.71 fold | 1.7 fold | 0.39 fold | 22.3 fold |
| B5 | 0.4 fold | 0.4 fold | 0.09 fold | 5.2 fold |
| B6 | 1.94 fold | 1.92 fold | 0.45 fold | 25.3 fold |
| B7 | 1.25 fold | 1.29 fold | 0.29 fold | 17 fold |
| B8 | 3.05 fold | 2 fold | 0.7 fold | 26.3 fold |
| B9 | 11.6 fold | 6.8 fold | 2.12 fold | 72.1 fold |
